*1 amine or outer side, *2 acyl side, *3 side chain or, on linkers, in order; H or OH if unused. Where no end group is shown, it is not given here. [ ]: non-standard residue; d: D form. αMe‑APPA = 2-amino-2-methyl-5-phenylpentanoic acid, C[C@@](CCCc1ccccc1)(N[*:1])C(=O)[*:2]; Bip(2'-Et-4'-OMe) = CCc1cc(OC)ccc1-c1ccc(C[C@H](N)C(=O)O)cc1; αMePhe(2,6-F2) = C[C@](N)(Cc1c(F)cccc1F)C(=O)O; αMePhe(2-F) = C[C@](N)(Cc1ccccc1F)C(=O)O; αMeW = C[C@](N)(Cc1c[nH]c2ccccc12)C(=O)O; αMeNle = CCCC[C@](C)(N[*:1])C(=O)[*:2]; αMe‑Bip(OMe) = α-methylated Bip(OMe); hhPhe = N[C@@H](CCCc1ccccc1)C(=O)O; hArg = N=C(N)NCCCC[C@H](N)C(=O)O; hCit = NC(=O)NCCCC[C@H](N)C(=O)O; αMeF = C[C@](N)(Cc1ccccc1)C(=O)O; Cit = NC(=O)NCCC[C@H](N)C(=O)O; αMeV = CC(C)[C@](C)(N)C(=O)O; αMeM = CSCC[C@](C)(N)C(=O)O; αMeP = C[C@@]1(C(=O)O)CCCN1; Nle = CCCC[C@H](N)C(=O)O; Orn = NCCC[C@H](N)C(=O)O; Ac5c = NC1(C(=O)O)CCCC1; Ac3c = NC1(C(=O)O)CC1; Aib = CC(C)(N)C(=O)O
T1: rat PTH-1R (rat PTHR endogenously expressed on UMR-106 rat osteosarcoma cells) (rat, UniProt P25961 27-591)
T1 sequence (looked up): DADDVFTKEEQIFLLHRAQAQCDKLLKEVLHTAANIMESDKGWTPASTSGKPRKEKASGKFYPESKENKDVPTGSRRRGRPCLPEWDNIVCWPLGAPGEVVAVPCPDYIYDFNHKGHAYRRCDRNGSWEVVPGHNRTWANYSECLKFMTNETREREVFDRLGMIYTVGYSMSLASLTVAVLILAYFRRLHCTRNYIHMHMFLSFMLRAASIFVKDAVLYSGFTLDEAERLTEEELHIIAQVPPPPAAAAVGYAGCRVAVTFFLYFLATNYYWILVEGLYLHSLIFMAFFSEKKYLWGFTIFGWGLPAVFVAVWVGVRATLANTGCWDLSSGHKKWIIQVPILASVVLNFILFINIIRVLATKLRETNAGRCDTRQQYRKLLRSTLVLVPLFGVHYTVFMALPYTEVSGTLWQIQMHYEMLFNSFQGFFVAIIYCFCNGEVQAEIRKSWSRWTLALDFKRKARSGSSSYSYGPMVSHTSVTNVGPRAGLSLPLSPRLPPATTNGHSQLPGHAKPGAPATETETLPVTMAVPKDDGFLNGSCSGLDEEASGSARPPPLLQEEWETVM


Target: T1, rat PTH-1R (rat PTHR endogenously …)
Test: cell-based or functional assay

cAMP released with respect to control, 1 nM peptide, UMR-106 cells | cAMP released with respect to control, 10 nM peptide, UMR-106 cells | cAMP released with respect to control, 100 nM peptide, UMR-106 cells | Binder
38 percent of control | 91 percent of control | 120 percent of control | [Aib]V[Aib]EIQL[Nle]HQ[hArg]A[hArg][αMe‑Bip(OMe)][hhPhe] [Seq. ID. 899]
32 percent of control | 74 percent of control | 100 percent of control | [Ac5c]V[Aib]EIQ[αMePhe(2,6-F2)][Nle]HQ[Orn][Aib][αMePhe(2,6-F2)][Bip(2'-Et-4'-OMe)][hhPhe] [Seq. ID. 841]
34 percent of control | 82 percent of control | 104 percent of control | [Ac5c]V[Ac5c]EIQ[αMePhe(2-F)][Nle]HQ[hArg][αMeP]K[αMePhe(2-F)] [Seq. ID. 65]
26 percent of control | 79 percent of control | 97 percent of control | [Ac3c]V[Aib]EIQ[αMePhe(2,6-F2)][Nle]HQ[hArg][Aib]K[αMeF] [Seq. ID. 41]
19 percent of control | 66 percent of control | 84 percent of control | [Ac3c]V[Aib]EIQ[αMePhe(2-F)][Nle]HQ[hArg][αMeP]K[αMePhe(2-F)] [Seq. ID. 59]
16 percent of control | 41 percent of control | 52 percent of control | [Aib]V[Aib]EIQLMHQ[hArg][Aib]K[αMeF] [Seq. ID. 9]
23 percent of control | 73 percent of control | 93 percent of control | [Aib]V[Ac5c]EIQ[αMePhe(2,6-F2)][Nle]HQ[hArg][αMeP]K[αMePhe(2-F)] [Seq. ID. 78]
39 percent of control | 104 percent of control | 120 percent of control | V[Aib]V[Aib]EIQL[Nle]HQ[hArg]A[hArg][Bip(2'-Et-4'-OMe)][αMe‑APPA] [Seq. ID. 905]
42 percent of control | 101 percent of control | 110 percent of control | [Aib]V[Aib]EIQ[αMePhe(2-F)][Nle]HQ[hArg][αMeP]K[αMePhe(2,6-F2)] [Seq. ID. 91]
31 percent of control | 72 percent of control | 100 percent of control | [Ac3c]V[Aib]EIQ[αMePhe(2,6-F2)][Nle]HQ[hArg][Aib][Aib][αMePhe(2-F)] [Seq. ID. 174]
29 percent of control | 82 percent of control | 101 percent of control | [Aib]V[Aib]EIQ[αMePhe(2,6-F2)][Nle]HQ[hArg][Aib][Cit][αMePhe(2-F)] [Seq. ID. 132]
22 percent of control | 50 percent of control | 70 percent of control | [Aib]V[Aib]EIQ[αMePhe(2,6-F2)][Nle]HQ[hCit]A[Cit][Bip(2'-Et-4'-OMe)][hhPhe] [Seq. ID. 860]
14 percent of control | 48 percent of control | 66 percent of control | [Aib]V[Aib]EIQ[αMePhe(2,6-F2)][Nle]HQ[hArg][Aib][Cit][Bip(2'-Et-4'-OMe)][hhPhe] [Seq. ID. 820]
16 percent of control | 41 percent of control | 52 percent of control | V[Ac5c]V[Aib]EIQL[αMeNle]HQ[hArg]A[hArg][Bip(2'-Et-4'-OMe)][αMe‑APPA] [Seq. ID. 925]
31 percent of control | 72 percent of control | 100 percent of control | [Aib]V[Aib]EIQ[αMePhe(2,6-F2)][Nle]HQ[αMePhe(2,6-F2)][Aib][Aib][Bip(2'-Et-4'-OMe)][hhPhe] [Seq. ID. 886]
12 percent of control | 39 percent of control | 72 percent of control | [Ac3c]V[Aib]EIQ[αMePhe(2,6-F2)][Nle]HQ[hArg][αMeP]K[αMePhe(2,6-F2)] [Seq. ID. 110]
16 percent of control | 56 percent of control | 73 percent of control | [Ac5c]V[Aib]EIQ[αMePhe(2,6-F2)][Nle]HQ[hArg]AK[αMeF] [Seq. ID. 49]
29 percent of control | 52 percent of control | 69 percent of control | [Aib]V[Aib]EIQL[αMeM]HQ[hArg]A[hArg][αMeW][hhPhe] [Seq. ID. 942]
31 percent of control | 89 percent of control | 106 percent of control | [Aib]V[Ac5c]EIQ[αMePhe(2,6-F2)][Nle]HQ[hArg][Aib][Cit][αMePhe(2,6-F2)] [Seq. ID. 156]
26 percent of control | 67 percent of control | 81 percent of control | V[Ac3c]V[Aib]EIQL[αMeM]HQ[hArg]A[hArg][αMeW][αMe‑APPA] [Seq. ID. 950]
38 percent of control | 102 percent of control | 117 percent of control | V[Ac3c]V[Aib]EIQL[αMeNle]HQ[hArg]A[hArg][αMePhe(2-F)][αMe‑APPA] [Seq. ID. 935]
36 percent of control | 88 percent of control | 116 percent of control | [αMeV][Ac5c]V[Aib]EIQL[αMeM]HQ[hArg]A[hArg][αMeW][αMe‑APPA] [Seq. ID. 954]
18 percent of control | 51 percent of control | 72 percent of control | [αMeV][Ac5c]V[Aib]EIQL[αMeM]HQ[hArg]A[hArg][Bip(2'-Et-4'-OMe)][αMe‑APPA] [Seq. ID. 926]
19 percent of control | 42 percent of control | 59 percent of control | [Aib]V[Aib]EIQ[αMePhe(2,6-F2)][Nle]HQ[hCit][Aib][αMePhe(2,6-F2)][Bip(2'-Et-4'-OMe)][hhPhe] [Seq. ID. 872]
